Assay [1] concerns HPV+ SCC152 target cells. The experiment in a line: Mass cytometry (CyTOF) viSNE marker analysis of CER-transduced CD4+ T cells after antigen encounter. The class given is cell-based. The settings on record: for memory formation after antigen encounter: CER-transduced CD4+ T cells; for viSNE islands expressing T cell activation marker CD69 / viSNE islands expressing intracellular marker IFNγ: CER-transduced CD4+ T cells co-cultured with E7 TCR CD8+ T cells and SCC152; for viSNE islands expressing naïve T cell marker CD45RA within the CCR7+ population: compared to controls.
Excerpt: FIG. 64A-64B show viSNE maps of mass cytometry data of CER-transduced CD4+ T cells upon antigen encounter. CER-transduced CD4+ T cells were co-cultured with E7-specific TCR-transduced CD8+ T cells and HPV+ SCC152 target cells and then interrogated by mass cytometry (CyTof). Intact CER-CD4+ T cells are shown in plots displaying tSNE1 and tSNE2 axes. Nine intracellular markers were used for the viSNE analysis. Each dot represents a single cell. […] FIG. 64B: Populations of CD4^+ T cells were generated using a clustering algorithm from all 32 markers and overlaid onto the viSNE map.
(§1) FIGS. 65A-65B show viSNE maps of mass cytometry data of CER-expressing CD4+ T cells upon antigen encounter. CER-transduced CD4+ T cells were co-cultured with E7-specific TCR-transduced CD8+ T cells and HPV+ SCC152 target cells and then interrogated by mass cytometry (CyTof). Intact CER-CD4+ T cells are shown in plots displaying tSNE1 and tSNE2 axes. Eighteen cell surface markers were used for the viSNE analysis. Each dot represents a single cell. FIG. 65A: Populations of CD4^+ T cells were generated using a clustering algorithm from all 18 markers and overlaid onto the viSNE map. […] FIG. 65B: Color plots show the phenotype across viSNE ‘islands.’ Red represents high expression and blue represents low expression for each marker. Highlighted region indicates cells expressing T cell activation marker CD69.
as §1, with “FIGS. 66A-66B” for “FIGS. 65A-65B”, “FIG. 66A:” for “FIG. 65A:”, “FIG. 66B:” for “FIG. 65B:”, “cells the naïve” for “cells expressing”, “cell” for “cell activation”, “marker CD45RA.” for “marker CD69.”
CD4+ T cells were transduced with lentiviral vector comprising CER104, CER116, or CER117 nucleic acid. CER104 (SEQ ID NO:139) comprises a Tim4 binding domain, Tim4 transmembrane domain, and an engulfment signaling domain comprising a primary engulfment signaling domain comprising a TLR8 signaling domain and a secondary engulfment signaling domain comprising a DAP12 signaling domain. CER116 (SEQ ID NO:152) comprises a Tim4 binding domain, Tim4 transmembrane domain, and an engulfment signaling domain comprising a primary engulfment signaling domain comprising a TRAF6 signaling domain and a secondary engulfment signaling domain comprising a TLR8 signaling domain. CER117 (SEQ ID NO:153) comprises a Tim4 binding domain, Tim4 transmembrane domain, and an engulfment signaling domain comprising a primary engulfment signaling domain comprising a TLR8 signaling domain and a secondary engulfment signaling domain comprising a TRAF6 signaling domain. CER-transduced CD4+ T cells were co-cultured with E7 TCR-transduced CD8+ T cells and HPV+ SCC152 target cells and interrogated by mass cytometry (CyTOF) with viSNE for visualization of high dimensional single cell data (FIGS. 64-66). Intact CER-transduced CD4+ T cells are shown in plots displaying tSNE1 (horizontal) and tSNE2 (vertical) axes. 27 intracellular markers were used for the viSNE analysis. Each dot represents a single cell. […] Red represents high expression and blue represents low expression for each marker. Populations of CD4^+ T cells were generated using a clustering algorithm from all 27 markers and overlaid onto the viSNE map. […] Populations of CD4^+ T cells were generated using a clustering algorithm from all 18 markers and overlaid onto the viSNE map (FIG. 65A). […]

Assay [2] has as its system SCC152 cells. The experiment in a line: Magnitude breadth analysis of phagocytosis by CER type (pHrodo red / CELLTRACE violet microscopy). The assay is classed as cell-based. The settings on record: 8 hours co-culture with SCC152, CD8+/E7 TCR 1:1. As for the experimental part:
Top image is an enlargement of a cell in the lower left image showing a SCC152 cell engulfed by CER126-transduced CD4+ T cell. […] White arrow indicates CD8+ T cell transduced with E7-specific TCR and that is pHrodo Red negative (lower left panel of FIG. 60B). Software rendition of phagocytosis (lower right panel of FIG. 60B).
Various CER-modified CD4+ T cells were also evaluated for breadth of response to determine whether a particular CER confers a broad phagocytic response of low magnitude (e.g., 10% engulfment in 90% of cells) or a less frequent but strong phagocytic response (e.g., 90% engulfment in 10% of cells) in the host cells. CD8+ T cells were transduced with HPV16 E7 specific TCR as described in Example 1. CD4+ T cells were transduced with lentiviral vectors comprising a CER21, CER27, CER104, CER116, or CER117 nucleic acid. Mock-transduced (vector alone) CD4+ T cell were used as control. CD4+/CER+ and CD8+/E7 TCR+ T cells were stained with CELLTRACE violet. HPV16 E7+ head and neck squamous cell carcinoma cells (SCC152) were stained with pHrodo red. HPV16 E7 TCR transduced CD8+ T cells and selected CER transduced CD4+ T cells were mixed at a 1:1 ratio and co-cultured with SCC152 cells at a 1:1 ratio for 8 hours. Phagocytosis of target SCC152 cells by CER-transduced CD4+ T cells was analyzed by fluorescence microscopy. […] The horizontal axis represents the % area of CER-transduced CD4+ T cells having engulfment or % area of the CER-transduced CD4+ T cells taken up by target SCC152 cells. This measure was rarely above 40% across CER types tested. The vertical axis represents the proportion of CER-transduced CD4+ T cells that were phagocytic. For CER104, about 20% of CER104-transduced CD4+ T cells have more than 10% engulfment. For CER117-transduced CD4+ T cells, less than 10% have more than 10% engulfment.

From patent publication US12303551B2, “Cellular immunotherapy compositions and uses thereof” (CERO THERPEUTICS HOLDINGS, INC., priority 2018, dated 2025) come the findings set out here.

B1: CER116: Chimeric engulfment receptor: Tim4 binding, Tim4 transmembrane, TRAF6 and TLR8 signaling; SEQ ID NO: 152 (protein)
chain: MSKGLLLLWLVTELWWLYLTPAASEDTIIGFLGQPVTLPCHYLSWSQSRNSMCWGKGSCPNSKCNAELLRTDGTRIISRKSTKYTLLGKVQFGEVSLTISNTNRGDSGVYCCRIEVPGWFNDVKKNVRLELRRATTTKKPTTTTRPTTTPYVTTTTPELLPTTVMTTSVLPTTTPPQTLATTAFSTAVTTCPSTTPGSFSQETTKGSAFTTESETLPASNHSQRSMMTISTDIAVLRPTGSNPGILPSTSQLTTQKTTLTTSESLQKTTKSHQINSRQTILIIACCVGFVLMVLLFLAFLMSLLNCENSCGSSQSESDCCVAMASSCSAVTKDDSVGGTASTGNLSSSFMEEIQGYDVEFDPPLESKYECPICLMALREAVQTPCGHRFCKACIIKSIRDAGHKCPVDNEILLENQLFPDNFAKREILSLMVKCPNEGCLHKMELRHLEDHQAHCEFALMDCPQCQRPFQKFHINIHILKDCPRRQVSCDNCAASMAFEDKEIHDQNCPLANVICEYCNTILIREQMPNHYDLDCPTAPIPCTFSTFGCHEKMQRNHLARHLQENTQSHMRMLAHHLFYWDVWFIYNVCLAKVKGYRSLSTSQTFYDAYISYDTKDASVTDWVINELRYHLEESRDKNVLLCLEERDWDPGLAIIDNLMQSINQSKKTVFVLTKKYAKSWNFKTAFYLALQRLMDENMDVIIFILLEPVLQHSQYLRLRQRICKSSILQWPDNPKAEGLFWQTLRNVVLTENDSRYNNMYVDSIKQY
modifications: CER116, amino acids 1-22 are signal peptide
For the molecule B1, in assay [1], the “memory formation after antigen encounter” value was “associated with memory formation after antigen encounter”, the “viSNE islands expressing T cell activation marker CD69” value is listed as “enrichment of islands expressing the T cell activation marker CD69”, the “viSNE islands expressing intracellular marker IFNγ” value is “enrichment of islands expressing the intracellular marker IFNγ” and the “viSNE islands expressing naïve T cell marker CD45RA within the CCR7+ population” value is recorded as “loss of islands expressing the naïve T cell marker CD45RA”.

B2: CER104: Chimeric engulfment receptor: Tim4 binding, Tim4 transmembrane, TLR8 and DAP12 signaling; SEQ ID NO: 139 (protein)
chain: MSKGLLLLWLVTELWWLYLTPAASEDTIIGFLGQPVTLPCHYLSWSQSRNSMCWGKGSCPNSKCNAELLRTDGTRIISRKSTKYTLLGKVQFGEVSLTISNTNRGDSGVYCCRIEVPGWFNDVKKNVRLELRRATTTKKPTTTTRPTTTPYVTTTTPELLPTTVMTTSVLPTTTPPQTLATTAFSTAVTTCPSTTPGSFSQETTKGSAFTTESETLPASNHSQRSMMTISTDIAVLRPTGSNPGILPSTSQLTTQKTTLTTSESLQKTTKSHQINSRQTILIIACCVGFVLMVLLFLAFLHHLFYWDVWFIYNVCLAKVKGYRSLSTSQTFYDAYISYDTKDASVTDWVINELRYHLEESRDKNVLLCLEERDWDPGLAIIDNLMQSINQSKKTVFVLTKKYAKSWNFKTAFYLALQRLMDENMDVIIFILLEPVLQHSQYLRLRQRICKSSILQWPDNPKAEGLFWQTLRNVVLTENDSRYNNMYVDSIKQYYFLGRLVPRGRGAAEAATRKQRITETESPYQELQGQRSDVYSDLNTQRPYYK
modifications: CER104, amino acids 1-22 are signal peptide
With B2, in assay [1], the “memory formation after antigen encounter” value is “associated with memory formation after antigen encounter”, the “viSNE islands expressing T cell activation marker CD69” value is recorded as “enrichment of islands expressing the T cell activation marker CD69”, the “viSNE islands expressing intracellular marker IFNγ” value is reported as “enrichment of islands expressing the intracellular marker IFNγ” and the “viSNE islands expressing naïve T cell marker CD45RA within the CCR7+ population” value is “loss of islands expressing the naïve T cell marker CD45RA”. Further, the “proportion of CER-transduced CD4+ T cells having more than 10% engulfment” value in assay [2] is recorded as “about 20%”.

B3: CER117: Chimeric engulfment receptor: Tim4 binding, Tim4 transmembrane, TLR8 and TRAF6 signaling; SEQ ID NO: 153 (protein)
chain: MSKGLLLLWLVTELWWLYLTPAASEDTIIGFLGQPVTLPCHYLSWSQSRNSMCWGKGSCPNSKCNAELLRTDGTRIISRKSTKYTLLGKVQFGEVSLTISNTNRGDSGVYCCRIEVPGWFNDVKKNVRLELRRATTTKKPTTTTRPTTTPYVTTTTPELLPTTVMTTSVLPTTTPPQTLATTAFSTAVTTCPSTTPGSFSQETTKGSAFTTESETLPASNHSQRSMMTISTDIAVLRPTGSNPGILPSTSQLTTQKTTLTTSESLQKTTKSHQINSRQTILIIACCVGFVLMVLLFLAFLHHLFYWDVWFIYNVCLAKVKGYRSLSTSQTFYDAYISYDTKDASVTDWVINELRYHLEESRDKNVLLCLEERDWDPGLAIIDNLMQSINQSKKTVFVLTKKYAKSWNFKTAFYLALQRLMDENMDVIIFILLEPVLQHSQYLRLRQRICKSSILQWPDNPKAEGLFWQTLRNVVLTENDSRYNNMYVDSIKQYMSLLNCENSCGSSQSESDCCVAMASSCSAVTKDDSVGGTASTGNLSSSFMEEIQGYDVEFDPPLESKYECPICLMALREAVQTPCGHRFCKACIIKSIRDAGHKCPVDNEILLENQLFPDNFAKREILSLMVKCPNEGCLHKMELRHLEDHQAHCEFALMDCPQCQRPFQKFHINIHILKDCPRRQVSCDNCAASMAFEDKEIHDQNCPLANVICEYCNTILIREQMPNHYDLDCPTAPIPCTFSTFGCHEKMQRNHLARHLQENTQSHMRMLA
modifications: CER117, amino acids 1-22 are signal peptide
For the molecule B3, the “viSNE islands expressing intracellular marker IFNγ” value in assay [1] is listed as “enrichment of islands expressing the intracellular marker IFNγ”. The “proportion of CER-transduced CD4+ T cells having more than 10% engulfment” value in assay [2] is recorded as “less than 10%”.
